The RNAGym collection of RNA variant scans (doi:10.1073/pnas.2313332121)
Fewer inactive variants are shown than the library holds.

B1: TPR 5TU (parent)
chain: GGAUCUUCUCGAUCUAACAAAAAAGACAAAUCUGCCACAAAGCUUGAGAGCAUCUUCGGAUGCAGAGGCGGCAGCCUUCGGUGGCGCGAUAGCGCCAACGUUCUCAACUAUGACACGCAAAACGCGUGCUCCGUUGAAUGGAGUUUAUCAUG

Variants of: B1
Assay: polymerase ribozyme fitness, log enrichment relative to wild type (log ratio); higher = more active; in vitro selection for triplet polymerase activity
Procedure, shortened: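 Both subunits of a heterodimeric triplet polymerase ribozyme were given their own mutant library, built by PCR and transcribed. Each library was annealed with a biotinylated primer, the partner subunit and triplets, incubated frozen at −7 °C, and its extended constructs gel-excised, captured on streptavidin beads and amplified by RT-PCR, all in one round done in triplicate. Fitness is the logarithm of genotype enrichment relative to wild-type enrichment, with replicates averaged by inverse-variance weighting. That logarithm is base 2, and Illumina-sequenced genotypes needed ≥10 input reads and ≥1 read per output.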
With C54U U144A the “polymerase ribozyme fitness (log ratio)” value was -0.258.
With U4G G84U A107U G140A the “polymerase ribozyme fitness (log ratio)” value was ≤ -4.2.
In the case of C8U C99A, the “polymerase ribozyme fitness (log ratio)” value is reported as -3.69.
With G152U the “polymerase ribozyme fitness (log ratio)” value was -2.19.
In the case of G42A C51U A64C G80A U127A, the “polymerase ribozyme fitness (log ratio)” value is reported as ≤ -4.2.
For G50U C57A C72U G84A, the “polymerase ribozyme fitness (log ratio)” value was -0.724.
For A16G C18A A26G C38U G42C G81A C87A C116A, the “polymerase ribozyme fitness (log ratio)” value was ≤ -4.2.
In the case of A17G A28U C32U A39U C57A C95A A110G U144C A147G A150C, the “polymerase ribozyme fitness (log ratio)” value is reported as ≤ -4.2.
In the case of U139G C149G, the “polymerase ribozyme fitness (log ratio)” value is reported as -3.88.
In the case of C38G G68C C85G G126A U139G G140A C149G, the “polymerase ribozyme fitness (log ratio)” value is reported as ≤ -4.2.
With U53A G67C C76G G84A C114U the “polymerase ribozyme fitness (log ratio)” value was -4.1.
With G50U G74A C85U the “polymerase ribozyme fitness (log ratio)” value was -3.88.
With G68A A91U A107C A110G G141A the “polymerase ribozyme fitness (log ratio)” value was ≤ -4.2.
With C43U C63U A73C U78A G84U U90G C93U A119U A142U the “polymerase ribozyme fitness (log ratio)” value was ≤ -4.2.
With G42C C43A U55G C57U A66C A137C G141C the “polymerase ribozyme fitness (log ratio)” value was ≤ -4.2.
With A52G U53G the “polymerase ribozyme fitness (log ratio)” value was -3.21.
With C14U A150C the “polymerase ribozyme fitness (log ratio)” value was ≤ -4.2.
In the case of C35U C72U, the “polymerase ribozyme fitness (log ratio)” value is reported as -0.649.
In the case of C36G U56A A98G, the “polymerase ribozyme fitness (log ratio)” value is reported as -3.71.
With C51U C95A U104C C116G the “polymerase ribozyme fitness (log ratio)” value was -0.304.
In the case of C108U C114U, the “polymerase ribozyme fitness (log ratio)” value is reported as -4.06.
With C76A U90C U146G the “polymerase ribozyme fitness (log ratio)” value was ≤ -4.2.
With G86U C118U C125U the “polymerase ribozyme fitness (log ratio)” value was -4.01.
For A91U U134G A137U, the “polymerase ribozyme fitness (log ratio)” value was ≤ -4.2.
In the case of A21U A60G, the “polymerase ribozyme fitness (log ratio)” value is reported as 0.987.
For C54U G92C A121U, the “polymerase ribozyme fitness (log ratio)” value was -0.244.
In the case of C5G A23G A49U U77G G86A A137G, the “polymerase ribozyme fitness (log ratio)” value is reported as ≤ -4.2.
With A20C G50A C76G G80C A91U A98G the “polymerase ribozyme fitness (log ratio)” value was ≤ -4.2.
In the case of A39C A40G A49C G80U G86U A106C A150C, the “polymerase ribozyme fitness (log ratio)” value is reported as ≤ -4.2.
In the case of G100A, the “polymerase ribozyme fitness (log ratio)” value is reported as -3.76.
With A52G C125U C131U G143U U146G the “polymerase ribozyme fitness (log ratio)” value was ≤ -4.2.
In the case of U53A C103U, the “polymerase ribozyme fitness (log ratio)” value is reported as -0.534.
In the case of A39U A91U, the “polymerase ribozyme fitness (log ratio)” value is reported as ≤ -4.2.
For C51U G94U, the “polymerase ribozyme fitness (log ratio)” value was -1.45.
In the case of C72U U104G A106G U144A, the “polymerase ribozyme fitness (log ratio)” value is reported as -4.01.
For A24U C35U C75U, the “polymerase ribozyme fitness (log ratio)” value was -2.19.
For C10A A41C C76A A91U C96G A121C U127G, the “polymerase ribozyme fitness (log ratio)” value was ≤ -4.2.
For U15G G25C C51A C96G C149G, the “polymerase ribozyme fitness (log ratio)” value was ≤ -4.2.
With C69A A115U the “polymerase ribozyme fitness (log ratio)” value was -2.49.
In the case of U55A G71A G81C C95G C125U, the “polymerase ribozyme fitness (log ratio)” value is reported as ≤ -4.2.
In the case of A52U U55A U56G A66G C99A C132U, the “polymerase ribozyme fitness (log ratio)” value is reported as ≤ -4.2.
For U6A A16C A20G G62C A91U A110U, the “polymerase ribozyme fitness (log ratio)” value was ≤ -4.2.
In the case of A26G G42U G48C G50U G84C C87G, the “polymerase ribozyme fitness (log ratio)” value is reported as ≤ -4.2.
For A98U U127G, the “polymerase ribozyme fitness (log ratio)” value was -3.18.
In the case of A37C U56A C85A C99G A107G G124A, the “polymerase ribozyme fitness (log ratio)” value is reported as ≤ -4.2.
In the case of A40U C95U G143U, the “polymerase ribozyme fitness (log ratio)” value is reported as ≤ -4.2.
For A20G G59C G94C, the “polymerase ribozyme fitness (log ratio)” value was -0.672.
For A12U C51G G88C C108G G117C, the “polymerase ribozyme fitness (log ratio)” value was ≤ -4.2.
In the case of A66C C103G C108A G117A, the “polymerase ribozyme fitness (log ratio)” value is reported as ≤ -4.2.
With A52U U109G the “polymerase ribozyme fitness (log ratio)” value was -3.48.
In the case of U6G A16G A29U C54U G86A U102G, the “polymerase ribozyme fitness (log ratio)” value is reported as ≤ -4.2.
For C51U C95G C105G G117U, the “polymerase ribozyme fitness (log ratio)” value was -3.53.
With C87A A97U the “polymerase ribozyme fitness (log ratio)” value was ≤ -4.2.
In the case of C14U C85A U134G A142G A150U, the “polymerase ribozyme fitness (log ratio)” value is reported as ≤ -4.2.
With U13G A29U C38G G70U G117U A120U C149U the “polymerase ribozyme fitness (log ratio)” value was ≤ -4.2.
For A16G C18U U31G C35A C43A C95G C103U, the “polymerase ribozyme fitness (log ratio)” value was ≤ -4.2.
For A19U C38U G50A C79A, the “polymerase ribozyme fitness (log ratio)” value was ≤ -4.2.
For A40U C95U, the “polymerase ribozyme fitness (log ratio)” value was -1.07.
For U90C U102C A107U, the “polymerase ribozyme fitness (log ratio)” value was ≤ -4.2.
In the case of C114U U151G, the “polymerase ribozyme fitness (log ratio)” value is reported as -4.08.
For A17C A26U C75A G84A G141U, the “polymerase ribozyme fitness (log ratio)” value was ≤ -4.2.
With U55A C69G U146A the “polymerase ribozyme fitness (log ratio)” value was -3.62.
With C93G C96A C105U C116U the “polymerase ribozyme fitness (log ratio)” value was -4.17.
In the case of C76U C95U U135C C149A, the “polymerase ribozyme fitness (log ratio)” value is reported as ≤ -4.2.
For C18U G88C C103A G112C G143C, the “polymerase ribozyme fitness (log ratio)” value was ≤ -4.2.
With U7A A24G C32A G88C C99G U104G G140C the “polymerase ribozyme fitness (log ratio)” value was -4.07.
For A26C U61A A64U C85A A110C, the “polymerase ribozyme fitness (log ratio)” value was ≤ -4.2.
In the case of C32G U56A C57A C114G, the “polymerase ribozyme fitness (log ratio)” value is reported as -4.19.
In the case of C116G G124C U148C, the “polymerase ribozyme fitness (log ratio)” value is reported as ≤ -4.2.
In the case of C8G G67C G92U C99U A107U U148A, the “polymerase ribozyme fitness (log ratio)” value is reported as ≤ -4.2.
In the case of G50C G80C C93A A98U, the “polymerase ribozyme fitness (log ratio)” value is reported as ≤ -4.2.
For C35A G86U C87G A97U C105U A119U A150C, the “polymerase ribozyme fitness (log ratio)” value was ≤ -4.2.
In the case of U15C U56G A113U, the “polymerase ribozyme fitness (log ratio)” value is reported as -0.657.
In the case of G86U G124A U148A, the “polymerase ribozyme fitness (log ratio)” value is reported as -3.78.
With A21U U82C the “polymerase ribozyme fitness (log ratio)” value was 0.17.
For A52U U61G G80C C87G G94U A121U, the “polymerase ribozyme fitness (log ratio)” value was ≤ -4.2.
For C27A A49C U90G U145C, the “polymerase ribozyme fitness (log ratio)” value was ≤ -4.2.
In the case of U6G G59U U61A C72U A89G U90A C93G C108U A122U, the “polymerase ribozyme fitness (log ratio)” value is reported as ≤ -4.2.
For G58C A150U, the “polymerase ribozyme fitness (log ratio)” value was 1.46.
In the case of G81C G94A, the “polymerase ribozyme fitness (log ratio)” value is reported as -0.416.
With C36U U56G A60C U61G C79U C93U C99U G112C U144A A150C the “polymerase ribozyme fitness (log ratio)” value was ≤ -4.2.
For A21U C93A, the “polymerase ribozyme fitness (log ratio)” value was -1.74.
For G59U G94A C118U A150G, the “polymerase ribozyme fitness (log ratio)” value was -1.69.
